These results are taken from a protein production outcome set (Wang et al. 2014).

The series is described as follows: label from the status in PepcDB records.
For the sequence “MWYPLAAMKGVLEALHQGDYDTAIDLLTRKALFGREREAKEAWLLLAEVYALYGEEGLEKAHHALEEAYALGGLEYDPLYRSLLAELLALEGRPEREVLPLFLPSRDPRVRYHQAQALFYLGRLEEALEVLEAGLPPHLAWRAEGLKGRILERLGRHGEAALAYERGAELALGLERYWLLLDAAAMWLEAGEGERALLALKEAEAAVGEEDPEDAATRHYLLARAHLLLGNPGLALEEIRKALALEEESGHKAYGTPLVEGQALLQLGRYEEAMASFREALARADAGERPHVLHEMGVAALDHGAYPEAEEHLRALVREEGYPYLAQAYADLAEALYRQGRYQEAEAAAREAVARGAVAAGELVLGHVAYDLLHLEEALEHYRKAAESAEEGSREWVGAQEMVVDTLAQLGYRFPEEMVRRGQAVLPYLHPADEWHAALTAYVERAQALLREGKRLN”, the protein production result is recorded as “failed”.

Regarding “MIGDYERFKQLKKKVAEALNISEEELDRMIDKKIEENGGIILKDAALMMIAKEHGVYGEEKNDEEFLISDIEEGQIGVEITGVITDISEIKTFKRRDGSLGKYKRITIADKSGTIRMTLWDDLAELDVKVGDVIKIERARARKWRNNLELSSTSETKIKKLENYEGELPEIKDTYNIGELSPGMTATFEGEVISALPIKEFKRADGSIGKLKSFIVRDETGSIRVTLWDNLTDIDVGRGDYVRVRGYIREGYYGGLECTANYVEILKKGEKIESEEVNIEDLTKYEDGELVSVKGRVIAISNKKSVDLDGEIAKVQDIILDNGTGRVRVSFWRGKTALLENIKEGDLVRITNCRVKTFYDREGNKRTDLVATLETEVIKDENIEAPEYELKYCKIEDIYNRDVDWNDINLIAQVVEDYGVNEIEFEDKVRKVRNLLLEDGTGRIRLSLWDDLAEIEIKEGDIVEILHAYAKERGDYIDLVIGKYGRIIINPEGVEIKTNRKFIADIEDGETVEVRGAVVKILSDTLFLYLCPNCRKRVVEIDGIYNCPICGDVEPEEILRLNFVVDDGTGTLLCRAYDRRVEKMLKMNREELKNLTIEMVEDEILGEEFVLYGNVRVENDELIMVVRRVNDVDVEKEIRILEEME”, the protein production result is reported as “failed”.

Consider “MQYIKQIMLLVILTISWKCQAEEVKEIWLDELGESSYYIQDWGLPRINKAVTMTPLTVKGIVYERGIGTHAISRMLFDIGKKAKTLSGLAGADDNTPFACNLQFKILGDRKELWRSGIMRKGDPAKPFNIDLSGIDKVLLLVEECGDGMMYDRADWLNVKFTTLGDVQPIPVWPKPIAKEKYILTPQSPDAPQINNPLTYGARPGNPFLMPIMVSGKRPMTYKAKGLPKGLKLNRKTGLITGSTNTNGNFKVRLQATNEKGTDEKEITLKIGSEIMLTPPMGWNSWNCWRFAADDQKVRDAARIMHEKLQAYGWTYVNIDDGWEADERTPEGELPANEKFPDFKTLTDYIHSLGLKFGIYSSPGWTTCGRHIGSCQHELTDAKTWEKWGVDYLKYDYCGYAAIEKNSEEKTIQEPFIVMRNALDQIKRDIVYCVGYGAPNVWNWGAEAGGNLWRTTRDINDQWNIVMAIGCFQDVCAYVSAPGKYNDPDMLVVGKLGPGWGAKSHDSDLTADEQYAHISLWSILSAPLLLGCDMTAIDDFTLGLLTNPEVIAVNQDPLVAPATKLTVPNGQIWYKKLYDGSYALGFFQMDPYFILWDQDKAVNIQQQKYNFNFALNQLGIQGKVKIRDLWRQKNLGIFSGSYETSIPYHGVSLIKITPIK”, for which the protein production result is on record as “failed”.

As to “MDISGRDVETRLTLAREFMSGVDELPTVPDIVLRIAGKLNDPDVAIDEVADLLLQDQVLTARVVHLANSPLYSAARPISSIRDAVIYLGLDLLREAIFTCAIVDLFKTGKGPLNRSTLWAHSLGVARIAKLIAERTGFLNPVNVYVAGLLHDVGEVFINFFRGKEFSQVVTLVDEEKITFGQAEERLFGTSHCEVGFALAKRWSLNEFICDTILYHHDIEAVPYKQAAIVAMVAFADEYCTLRRLGFEGHKPVDSVRTLLENHPSWGVIRRSLGGSDFDEKLIVAELDSSIVEIRAAVDELFLL”, the protein production entry is on record as “failed”.

With “MKYTYKQIWLINFPVMMSILMEQLINITDAVFLGHVGEIELGASALAGIYYLAIYMLGFGFSIGLQVMIARRNGEQHYKETGRTFFQGLYFLMVMAIMLCLLIHLVSPFILQQLITSDEIYQAVIRYLNWRSFGLLFSFPFLAFRAFLVGVTNTKLLSGAALTAVCINIPFNYLLIFKLDMGISGAAMASSIAEFGAFLILLLYMCKTVDKKKYGLSAVYDGRLLMKLLQLSVWSMLHAFISVAPWFLFFVAIEHLGKTELAISNITRSVSTLFFVIVNSFASTTGSLVSNLIGGGQGKELFPVCRKVLRLGYVVGLPLILTALWGNQWIIGFYTNNDYLVKLAFWPFIVMLLNYVFALPGYVYINAVTGTGKTRLAFVFQLVTILIYLIYLYLLSECFHASLTVYMTAEYLFVILLGIQSILYLKRKSKQNMYFCTFND”, the protein production result was “failed”.

For “MINSVITQMAEELRKASKVALFSHVSPDGDCIGSMLGIGLALEALGKEVAMFNPDPIPRNLSFLPGVDKITQSMPDPLPETLLFVDCADLQRVQLQREDLPADAVILNLDHHISNQNFGRINWVDSQAAASGELAYALVRRLNVELTQEIAANFYTALLTDTGSFKYANTTAKTHQIAGELMETGISLGDIHHFVFDQTPMVKLELLRRGLNQLQFFAEGQLGMMTLRKQDFEESGAEESLSEGLIDHARTVEGVEVAVLLKEVKPDVVRVSLRSNRWFDVNRIADGFGGGGHQRAAGCTLHLSLEEAKQKVRQIIEEELKLGRSHLEHHHHHH”, the protein production entry was “not failed”.

For “MDYKKTNAPSNTVTRDMMDLCADTGNIYETVAIIGKRANQISVEMKNDLSKKLQEFASYNDNLEEVFENREQIEISRYYEKLPKPTLIAAQEYEEGKVYFRNPAKEKEKLQ”, the protein production result was “not failed”.

Consider “MSKKPPNRPGITFEIGARLEALDYLQKWYPSRIEKIDYEEGKMLVHFERWSHRYDEWIYWDSNRLRPLERPALRKEGLKDE”, for which the protein production entry is recorded as “not failed”.

Regarding “MSRQANRGTESKKMSSELFTLTYGALVTQLCKDYENDEDVNKQLDRMGYNIGVRLIEDFLARSNVGRCHDFRETADVIAKVAFKMYLGITPSITNWSPAGDEFSLILENNPLVDFVELPDNHSALIYSNLLCGVLRGALEMVQMAVEAKFVQDTLKGDGVTEIRMRFIRRIEDNLPAGEE”, the protein production result is listed as “not failed”.

On to “MIPSSSPMESRHRLSFSNEKTSRRRFQRIEKGVKFNTLKLVLICIMLGALFTIYRFRYPPLQIPEIPTSFGLTTDPRYVATAEINWNHMSNLVEKHVFGRSEYQGIGLINLNDNEIDRFKEVTKSDCDHVALHLDYAAKNITWESLYPEWIDEVEEFEVPTCPSLPLIQIPGKPRIDLVIAKLPCDKSGKWSRDVARLHLQLAAARVAASSKGLHNVHVILVSDCFPIPNLFTGQELVARQGNIWLYKPNLHQLRQKLQLPVGSCELSVPLQAKDNFYSAGAKKEAYATILHSAQFYVCGAIAAAQSIRMSGSTRDLVILVDETISEYHKSGLVAAGWKIQMFQRIRNPNAVPNAYNEWNYSKFRLWQLTEYSKIIFIDADMLILRNIDFLFEFPEISATGNNATLFNSGLMVVEPSNSTFQLLMDNINEVVSYNGGDQGYLNEIFTWWHRIPKHMNFLKHFWEGDEPEIKKMKTSLFGADPPILYVLHYLGYNKPWLCFRDYDCNWNVDIFQEFASDEAHKTWWRVHDAMPENLHKFCLLRSKQKAQLEWDRRQAEKGNYKDGHWKIKIKDKRLKTCFEDFCFWESMLWHWGETNSTNNSSTTTTSSPPHKTALPSL”, for which the protein production entry is “failed”.

As to “MKTSVKFETIFPLTTAPLIQCITNEITCESMANALLYIDAKPIMADDPREFPQMFQQTSALVLNLGHLSQEREQSLLAASDYARQVNKLTVVDLVGYGASDIRNEVGEKLVHNQPTVVKGNLSEMRTFCQLVSHGRGVDGSPLDQSEEAIEELIQALRQQTQKFPQTVFLATGIQDVLVSQEQVIVLQNGVPELDCFTGTGDLVGALVAALLGEGNAPMTAAVAAVSYFNLCGEKAKTKSQGLADFRQNTLNQLSLLMKEKDWFEAVKGRVL”, the protein production result was “not failed”.

As for “MAKKAMENGYKLILGSQSMARKQILAEMGYDFTIVTADIDEKAIRKEKPEDLVVTIAEAKANEIILKLGGENQFTQDSQPTLLITADTVVVYKGWDKAEVYFHEIPEHVIDDLIDDAITFKVAGGLMLEHPLISPFIDSVVGGVDTVMGLSKELTEKFINDVL”, the protein production entry was “failed”.

On to “MVFKRRDRRSPLQVLWELIWPRGGWTRAFHYVKHRVRRLPDRPERIARGIGAGVFASFTPFYGIHFVIAAILARLINGNILAGLSGTFFGNPLTYVPIGVVSLQTGHFLLGTEFHEGAKQGLMRKFARAAGDLKDNFLALFTDRDADWQALGLFFDEVFFPYMIGGIAPGIVAGVVCYYLSLPVISTYQKRRRAKIKAKFEAIKKKAQADLPNPGNPG”, for which the protein production result is “failed”.

With “DDNSYSLGDIWIAVATVVPEGNNVYYLRLDDGDKLWPAATNYPNYQPKPNQRALVNFTILADSTQSNLGGFSHYIKVNAIHNILTKSIAKNEGAANDSIYGTDPVSIYNNNMWIGDGYLNIYFETLWGGKTAHFINLIQPDAENDPYTLEFRHNAYDDPQYTIGAGRVAFNLSSLPDTKGETVDLVVNYWTSEGKQAYKLKYNSDKTKMEDTSQGYTNDSISNITDMK”, the protein production result is reported as “not failed”.

With “MITTIISSVVAFATTNIDDIFILLVLFSQVRTEVIRKEGRAVREKATRKKLYIVIGQYLGFSMIIFLSIIGSLSSFFIPVSWIGLLGFVPIYMGVKGLLSLRSYKSNEVIDNVTVSLFKVASITLANGADNISIYIPMFASQTLETNIVTLVIFFSMIAIWCFISYKLIKAPILAKVLEENCHIIVPIVLIGLGMFILFRSGTIGLFS”, the protein production result is “failed”.

For the sequence “MDFAFEKVARDWFVRWSKGRSEKYAGQVMRNFERWVFPAIGNLDIRQVRTADVVGCLRVMEARGIVDTLRKTKNSLKMVFAFAVGSGMMEINPVAQIGSGVFERLEHHHHHH”, the protein production result is on record as “failed”.

For “MSAEATPESTLPGTAAETSPDNPWPLQLLSRKLKAHIERAPAAWIEGQVIELNRRGGNAFLTLRDVDAEISLPASVWSTVLDRQKVPLERGSRVVALVKADFWVKTGRLNMSVKDIRPVGLGDLLARIERLRQALAAEGLFADSRKRKLPLLPHRIGLITGRESDAKKDVMRNAALRWPAVEFDVREVAVQGNTAVSQIIAALKRLDADPHVDVIVLARGGGALEDLLPFSNEDLIRAVSAATTPVVSAIGHEADRPILDDVADLRASTPTDAAKRIVPDVAEELAMVRQARDHLRRSISRMVDRETDRLHALRSRPVLASPASMVDARSEDIHRLQRRTHSAVSTAVVRALDQVHHLRAQVRALSPQKTLDRGYAVVQLVGEDQAGHHVVSSPDEAPDGTPLSIRVAEGRFRAVSAGAGQLVEH”, the protein production entry was “failed”.

Consider “MLRIFIPTSNGKISRRRYIFSFILINFIFAFLIIFFNDGEAGFLVIVSTIVLHYLVINMNCQRLRDSGFIYIKTYVFGTLAVYIISIITMIAEDFACSGNGSMIFLICYFSTFSMLMLAPTDSSKQ”, for which the protein production result is “failed”.

Consider “MSLNGKTMFISGASRGIGLAIAKRAAQDGANIALIAKTAEPHPKLPGTVYTAAKELEEAGGQALPIVGDVRDPESVEAAVAKTVEQFGGIDICVNNASAINLGPITEVPMKRFDLMNGIQVRGTYAVSQACIPHLKGRENPHILTLSPPVLLGKEWLKPTAYMMAKFGMTLCALGIAEEMREAGIASNTLWPRTLVATAAVQNLLGGDEAMGRARKPEVYSDAAYVILNKPAREFTGNMLLCEDVLVESGVTDLSVYNCVPGSQLGVDFWVDGVNPPGYTGP”, for which the protein production entry is reported as “failed”.

As to “MKLSQQSQAIIESAIQKAINKYTCGCEQTIVTDIHIQPNQNSGELFIYDDEDEELSSVTIDEWTAYEGDDFCEDAERIFRTVLCRMKENGSFDKLTILKPYSFVLVDEDKETISELLLVDDDTLLVNDELLKGLDKELDDFLKDLLEKLEHHHHHH”, the protein production entry was “not failed”.

For “KVSVNDIMVPRNEIVGIDINDDWKSIVRQLTHSPHGRIVLYRDSLDDAISMLRVREAYRLMTEKKEFTKEIMLRAADEIYFVPEGTPLSTQLVKFQRNKKKVGLVVDEYGDIQGLVTVEDILEEIVGDFT”, the protein production result is “not failed”.
